In patent US20210121527A1, “METHODS OF TREATING MINIMAL RESIDUAL CANCER” (ICAHN SCHOOL OF MEDICINE AT MOUNT SINAI, priority 2018, published 2021):

Key:
HEp3 HNSCC cells = assay: ERK/p38 activity ratio, dormancy mRNAs and NR2F1 in HEp3 cells; assay type: cell-based
Description: The effect on the ERK/p38 activity ratio is observed after 2-6 and 24 hours (second through fourth group of columns). In the first 30 minutes, ERK activity is stimulated by BMP7 (first column set). […] Arrows indicate NR2F1 flourescence. Differences in FIG. 13A and FIG. 13B, p<0.05 as calculated using Student's t test.
BMP7-F9 reduces the ERK/p38 activity ratio and induces various mRNAs in the dormancy signature (FIGS. 13A-13C). […] The effect on the ERK/p38 activity ratio is observed after 2-6 and 24 hours (second through fourth group of columns). In the first 30 minutes ERK activity is stimulated by BMP7 (first column set). […] Differences in FIG. 13A and FIG. 13B, p<0.05 as calculated using Student's t test.

T-HEp3 cells [1] = assay: T-HEp3 tumors on chicken embryo chorioallantoic membranes (CAM); assay type: in vivo; settings: 24 hours pre-treatment, then 50 ng/ml daily
Description: FIG. 14B is a schematic illustration of the in vivo experimental procedure used in FIGS. 14C-14D. T-HEp3 cells were pre-treated for 24 hours with BMP7-F9 in vitro and then inoculated on chicken embryo chorioallantoic membranes (“CAM”s) (FIG. 14C), where they were treated daily in vivo with vehicle or BMP7-F9 (50 ng/ml) prior to collection of the tumors and quantification of number of HEp3 HNSCC cells (FIG. 14D) and levels of P-H3 (FIG. 14E). Arrows in FIG. 14E indicate overlapping P-H3 and DAPI fluorescence.
FIG. 14B is a schematic illustration of the in vivo experimental procedure used in FIGS. 14C-14D. T-HEp3 cells were pre-treated for 24 hours with BMP7-F9 in vitro and then inoculated on chicken embryo chorioallantoic membranes (CAMs) (FIG. 14C), where they were treated daily in vivo with vehicle or BMP7-F9 (50 ng/ml) prior to collection of the tumors and quantification of number of HEp3 HNSCC cells/tumor (FIG. 14D) and levels of P-H3 (FIG. 14E).

HEp3-GFP HNSCC tumors = assay: HEp3-GFP HNSCC tumor surgery model in NSG mice, local recurrence and lung DCCs; assay type: in vivo, mouse
From the text: FIGS. 15A-15C show the evaluation of BMP7-F9 treatment in a mouse model of disease. FIG. 15A is a schematic illustration of an in vivo experimental procedure used to evaluate the effect of BMP7-F9 on metastasis initiation. […] Tumors were then removed via surgery. 1-2 days after surgery, the adjuvant treatment with BMP7-F9 was continued for another 3, 4, or 6 weeks. Animals were then euthanized and the DCC burden in lung was scored using fluorescence microscopy. […] At those time points, the percentage of local recurrence and DCC incidence was scored. In FIG. 15C, mice were treated as in FIG. 15A, except that the adjuvant treatment was for 4 weeks. The number of GFP positive cells in dissociated lungs was scored following treatment. […] Note that the median of DCC burden drops one log and that BMP-7 apparently cures from DCCs 3 of 7 animals.
Tumors were then removed via surgery. 1-2 days after surgery, the adjuvant treatment with BMP7-F9 was continued for another 4 weeks. Animals were then euthanized and the DCC burden in lung was scored using fluorescence microscopy. […] NSG mice were treated following the protocol in FIG. 15A for 4 weeks. At those time points, the percentage of local recurrence and DCC incidence was scored. The number of GFP positive cells in dissociated lungs was scored following treatment. […] Note that the median of DCC burden drops one log and that BMP-7 apparently cures from DCCs 3 of 7 animals.

T-HEp3 cells [2] = assay: Cell titer blue proliferation assay; assay type: cell-based; settings: 48 hours
[3] = adjuvant treatment only, 3 weeks
[4] = adjuvant treatment only, 6 weeks
[5] = neo-adjuvant and adjuvant treatment, 4 weeks

B1: BMP7-F9: variant of human mature BMP7, homodimer of SEQ ID NO:8 (protein, listed as Homo sapiens)
chain: STGSKQRSQNRSKTPKNQEALRMANVAENSSSDQRQACKKHELYVSFRDLGWQDWIIAPEGYAAGYCEGECAFPLNSYMNATNHALVQTLVHVINPETVPKPCCAPTQLGAISVLYFDDSSNVILKKWRNMVVRACGCH
modifications: homodimer
DEC2, p53 and p27 mRNAs (HEp3 HNSCC cells; 10 ng/ml, 24 hours): induces DEC2, p53, and p27 mRNAs | nuclear NR2F1 (immunofluorescence) (HEp3 HNSCC cells; 10 ng/ml, 24 hours): induces nuclear accumulation of NR2F1 | ERK/p38 activity ratio (Western blot) (HEp3 HNSCC cells; 2, 5 and 10 ng/ml, 2-6 and 24 hours): reduces the ERK/p38 activity ratio over control | growth of T-HEp3 cells in vivo (CAM) (T-HEp3 cells [1]): induces growth arrest of T-HEp3 cells | +DCCs in lungs (animals) (HEp3-GFP HNSCC tumors; [3]): 5 | +local recurrence (animals) (HEp3-GFP HNSCC tumors; [3]): 1 | DCC incidence (%) (HEp3-GFP HNSCC tumors; [3]): 50.0% | Local recurrence incidence (%) (HEp3-GFP HNSCC tumors; [3]): 9.1% | Median number of GFP^+/Vimentin^+ tumor cells/lung (HEp3-GFP HNSCC tumors; [3]): 0.62E+04 | +DCCs in lungs (animals) (HEp3-GFP HNSCC tumors; [4]): 3 | +local recurrence (animals) (HEp3-GFP HNSCC tumors; [4]): 0 | DCC incidence (%) (HEp3-GFP HNSCC tumors; [4]): 42.9% | Local recurrence incidence (%) (HEp3-GFP HNSCC tumors; [4]): 0.0% | Median number of GFP^+/Vimentin^+ tumor cells/lung (HEp3-GFP HNSCC tumors; [4]): 0 | +DCCs in lungs (animals) (HEp3-GFP HNSCC tumors; [5]): 4 | +local recurrence (animals) (HEp3-GFP HNSCC tumors; [5]): 3 | DCC incidence in lungs % (HEp3-GFP HNSCC tumors; [5]): 57.1% | Median number of GFP^+/Vimentin^+ tumor cells/lung (HEp3-GFP HNSCC tumors; [5]): 0.02E+04 | animals apparently cured from DCCs (HEp3-GFP HNSCC tumors; [5]): 3 of 7 | local recurrence % (HEp3-GFP HNSCC tumors; [5]): 42.9% | median of DCC burden in lungs (HEp3-GFP HNSCC tumors; [5]): drops one log | proliferation in vitro (cell titer blue) (T-HEp3 cells [2]): inhibits their proliferation in vitro
